Experimental data from doi:10.1101/2020.10.11.334888 (bioRxiv, 2020).
Numbering of substitutions follows the chain as printed. Names and notes keep the numbering of the source. Read-outs that look alike come from different tables or passages of the source.

B1: FliF in the native flagellar basal body (native MS ring) (natural protein)
chain: MSATASTATQPKPLEWLNRLRANPRIPLIVAGSAAVAIVVAMVLWAKTPDYRTLFSNLSDQDGGAIVAQLTQMNIPYRFANGSGAIEVPADKVHELRLRLAQQGLPKGGAVGFELLDQEKFGISQFSEQVNYQRALEGELARTIETLGPVKSARVHLAMPKPSLFVREQKSPSASVTVTLEPGRALDEGQISAVVHLVSSAVAGLPPGNVTLVDQSGHLLTQSNTSGRDLNDAQLKFANDVESRIQRRIEAILSPIVGNGNVHAQVTAQLDFANKEQTEEHYSPNGDASKATLRSRQLNISEQVGAGYPGGVPGALSNQPAPPNEAPIATPPTNQQNAQNTPQTSTSTNSNSAGPRSTQRNETSNYEVDRTIRHTKMNVGDIERLSVAVVVNYKTLADGKPLPLTADQMKQIEDLTREAMGFSDKRGDTLNVVNSPFSAVDNTGGELPFWQQQSFIDQLLAAGRWLLVLVVAWILWRKAVRPQLTRRVEEAKAAQEQAQVRQETEEAVEVRLSKDEQLQQRRANQRLGAEVMSQRIREMSDNDPRVVALVIRQWMSNDHE
B2: FliF(L253A) expressed from pMMiF004 in Salmonella TH12415 (ΔfliF) (natural protein)
chain: B1 chain with L253A
B3: full-length Salmonella FliF (MS ring), overexpressed from pKOT112 (data set 1) (natural protein)
chain: B1 chain
B4: FliF(V266R), overexpressed in E. coli (natural protein)
chain: B1 chain with V266R
B5: FliF(L253A), overexpressed in E. coli (natural protein)
chain: B1 chain with L253A
B6: FliF(L253R), overexpressed in E. coli (natural protein)
chain: B1 chain with L253R
B7: FliF(I252A), overexpressed in E. coli (natural protein)
chain: B1 chain with I252A
B8: full-length Salmonella FliF (MS ring), overexpressed from pKOT105 (data set 2) (natural protein)
chain: B1 chain
B9: FliF(I252R), overexpressed in E. coli (natural protein)
chain: B1 chain with I252R
B10: FliF(I252A) expressed from pMMiF002 in Salmonella TH12415 (ΔfliF) (natural protein)
chain: B1 chain with I252A
B11: FliF(V266A), overexpressed in E. coli (natural protein)
chain: B1 chain with V266A

Columns and labels:
cryo-EM structure [1] = target: the molecule itself; test: cryo-EM structure
[2] = target: the molecule itself; test: electron microscopy of purified hook-basal bodies
cryo-EM structure [3] = target: the molecule itself; test: cryo-EM structure; remark: listed apart in the source
negative-stain EM = target: the molecule itself; test: negative-stain EM

| Protein | binding result (negative-stain EM) | other results |
| --- | --- | --- |
| B1 | – | stoichiometry N (cryo-EM structure [1]): 34 |
| B2 | – | binding result [2]: binds |
| B3 | – | stoichiometry N (cryo-EM structure [3]): 34 |
| B4 | binds | – |
| B5 | binds | – |
| B6 | binds | – |
| B7 | binds | – |
| B8 | – | stoichiometry N (cryo-EM structure [3]): 34 |
| B9 | binds | – |
| B10 | – | binding result [2]: binds |
| B11 | binds | – |
